# What was measured:
# [1] = biological target: water-soluble hFcRn (human) (UniProt P55899); experiment: SPR (Proteon XPR36), shFcRn immobilized on GLC chip, hIgG1 as analyte, pH 6.0
# [2] = biological target: T1, human FcRn (co-crystal with HL161BK Fab) (human, UniProt P55899 24-297; P61769 21-119); experiment: X-ray co-crystal structure at 2.4 Å
# T1 construct: also called hFcRn
# From the text: There are two copies each of hFcRn and HL161BK Fab per asymmetric unit. […] A data set was collected at ESRF beamline ID30A-1.
Kd [1],koff [1],kon [1],binding result [2],Molecule
1.4 nM,0.00046 s⁻¹,320000 M⁻¹ s⁻¹,,hIgG1 (antibody)
,,,binds,"HL161BK antibody Fab fragment (Fab, V domains shown, HL161BK is HL161B with asparagine (N) at position 83 of the heavy-chain variable framework replaced by lysine (K); It was used as a Fab in the crystal; also called HL161BK Fab) VH: QLLLQESGPGLVKPSETLSLTCTVSGGSLSSSFSYWVWIRQPPGKGLEWIGTIYYSGNTYYNPSLKSRLTISVDTSKNHFSLKLSSVTAADTAVYYCARRAGILTGYLDSWGQGTLVTVSS VL: SYVLTQSPSVSVAPGQTARITCGGNNIGSKSVHWYQQKPGQAPVLVVYDDSDRPSGIPERFSASNSGNTATLTISRVEAGDEADYYCQVWDSSSDHVVFGGGTKLTVLGQPKAAPSVTL"
